Laboratory results reported in patent publication US20240109954A1.

Biological target: EBOV GP displayed on vesicular stomatitis virus (VSV) pseudovirions (Ebola virus) (UniProt Q05320)
Assay: cell-based or functional assay

Chain of EBOV GP displayed on vesicular stomatitis virus (VSV) pseudovirions (Ebola virus) (Q05320 33-676 limits assumed): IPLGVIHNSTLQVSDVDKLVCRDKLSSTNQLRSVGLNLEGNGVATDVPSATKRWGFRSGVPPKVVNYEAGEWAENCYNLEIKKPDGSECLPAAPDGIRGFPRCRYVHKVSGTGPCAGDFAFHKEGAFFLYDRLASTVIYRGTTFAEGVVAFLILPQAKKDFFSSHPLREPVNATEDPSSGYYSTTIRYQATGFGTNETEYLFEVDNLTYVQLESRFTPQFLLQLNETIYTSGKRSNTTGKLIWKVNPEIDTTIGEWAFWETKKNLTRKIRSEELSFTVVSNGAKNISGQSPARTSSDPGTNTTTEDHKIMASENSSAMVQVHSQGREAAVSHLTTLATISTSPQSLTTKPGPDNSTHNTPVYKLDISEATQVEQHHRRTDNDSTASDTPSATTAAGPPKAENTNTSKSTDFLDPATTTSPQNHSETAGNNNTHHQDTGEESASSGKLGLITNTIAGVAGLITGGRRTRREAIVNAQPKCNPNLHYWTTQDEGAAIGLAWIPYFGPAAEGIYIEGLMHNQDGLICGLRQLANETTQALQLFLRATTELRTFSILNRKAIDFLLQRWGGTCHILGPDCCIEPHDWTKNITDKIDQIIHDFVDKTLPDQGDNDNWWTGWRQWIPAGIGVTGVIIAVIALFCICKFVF

Substance: KZ52 (antibody)
- IC50, neutralization of VSV pseudotyped to display EBOV GP: 0.08 µg/mL
